These results are taken from patent US20080261201A1, “Methods and compounds to alter virus infection” (priority 2006, published 2008).

Where two headings read alike, the source gives them in different places.

Test [1] has as its system AAV2. The following applies: Sanlioglu et al., 2004; 1999; cited from earlier work.
In test [2] the target is T1, AAV2 capsid (Adeno-associated virus 2, UniProt P03135). The following applies: following 100 nM H2O2 treatment; data not shown.
Test [3] has as its target T1, AAV2 capsid. Conditions: 100 nM H2O2.
Method: Subtle changes in capsid structure of the virion following heat denaturation or exposure to H2O2 was assayed using MALDI-TOF mass spectrometry following trypsin digestion. Briefly, 10^10 AAV2 particles were treated with H2O2 (which was then removed by dialysis for 1 hour against 20 mM Tris, 20 mM NaCl, pH 8.0) or heated to 70° C. as described above and then incubated with 500 ng of porcine trypsin in 25 mM NH4HCO3 (pH 8.0) at 37° C. for 16 hours. The digested products were then sequentially incubated with 10 mM DTT and 55 mM of iodoacetamide to reduce and modify cysteine residues. 1/20 of the original sample was assayed on a Bruker Biflex III MALDI-TOF MS. For the analysis of cysteine modification, the theoretical m/z values of peptides containing individual cysteines were predicted without modification, with iodoacetamide modification, and with different oxidative (sulfenic, sulfinic, or sulfonic) modifications. Spectra were evaluated using ExPASy (http://us.expasy.org/tools/peptide-mass.html) and compared to the theoretical spectra for various VP proteins.
Test [4] deals with AAV2 capsid PLA2 (Adeno-associated virus 2, UniProt P03135). Here is the method: 10^10 purified AV2FVIII virions were treated with various conditions to activate PLA2 activity in the capsid of purified virions. This included pre-incubation of virus with various concentration of H2O2 for 15 minutes at 37° C. or partial heat denaturation at 70° C. for 2 minutes. Catalase was added to virus treated with H2O2 at the end of the treatment period to scavenge H2O2 prior to the PLA2 activity assay. PLA2 activity of virions was determined by the release of radioactive fatty acid from L-3-phosphatidylcholine (PC), 1,2-di[1-^14C]oleoyl using the protocol described by Zadori et al. (2001).
Sequence of AAV2 capsid PLA2 (P03135 whole entry): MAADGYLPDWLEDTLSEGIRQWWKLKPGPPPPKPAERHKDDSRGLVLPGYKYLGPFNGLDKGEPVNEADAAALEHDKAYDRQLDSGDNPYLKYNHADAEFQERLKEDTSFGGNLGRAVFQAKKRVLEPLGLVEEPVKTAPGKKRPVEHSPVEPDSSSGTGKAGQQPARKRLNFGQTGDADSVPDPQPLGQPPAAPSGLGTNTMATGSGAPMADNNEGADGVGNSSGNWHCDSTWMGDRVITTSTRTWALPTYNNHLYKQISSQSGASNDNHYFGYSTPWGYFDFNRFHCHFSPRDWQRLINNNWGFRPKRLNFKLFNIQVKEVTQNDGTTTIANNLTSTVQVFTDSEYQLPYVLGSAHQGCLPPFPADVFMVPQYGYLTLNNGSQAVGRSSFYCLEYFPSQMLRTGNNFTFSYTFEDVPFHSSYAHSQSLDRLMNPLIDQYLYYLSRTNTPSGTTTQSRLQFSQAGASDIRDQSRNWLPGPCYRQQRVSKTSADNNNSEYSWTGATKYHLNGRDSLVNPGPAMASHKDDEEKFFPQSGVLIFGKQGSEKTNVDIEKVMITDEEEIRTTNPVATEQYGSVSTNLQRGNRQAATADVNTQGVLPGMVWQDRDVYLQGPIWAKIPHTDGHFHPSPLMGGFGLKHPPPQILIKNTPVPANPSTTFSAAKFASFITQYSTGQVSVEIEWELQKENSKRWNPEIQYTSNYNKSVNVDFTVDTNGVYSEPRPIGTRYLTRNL
Sequence of AAV2 capsid PLA2 (P03135 1-598 isoform P03135-2 partner): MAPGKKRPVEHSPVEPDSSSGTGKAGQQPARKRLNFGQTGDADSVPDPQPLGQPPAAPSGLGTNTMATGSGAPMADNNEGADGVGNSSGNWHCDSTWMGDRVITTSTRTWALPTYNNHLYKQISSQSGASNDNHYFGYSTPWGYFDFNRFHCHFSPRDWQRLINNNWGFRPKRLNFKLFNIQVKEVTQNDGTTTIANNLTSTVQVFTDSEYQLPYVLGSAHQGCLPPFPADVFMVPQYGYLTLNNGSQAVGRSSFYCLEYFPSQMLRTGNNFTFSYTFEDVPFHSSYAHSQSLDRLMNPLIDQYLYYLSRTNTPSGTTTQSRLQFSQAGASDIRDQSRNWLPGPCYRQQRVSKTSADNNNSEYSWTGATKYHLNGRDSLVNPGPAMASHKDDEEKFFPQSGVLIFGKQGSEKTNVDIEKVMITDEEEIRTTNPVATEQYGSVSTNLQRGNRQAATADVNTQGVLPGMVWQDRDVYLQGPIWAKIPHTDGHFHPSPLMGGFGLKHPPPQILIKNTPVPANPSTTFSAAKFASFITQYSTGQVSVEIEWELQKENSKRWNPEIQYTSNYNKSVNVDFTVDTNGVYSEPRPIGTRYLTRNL
Sequence of AAV2 capsid PLA2 (P03135 203-735 partner limits assumed): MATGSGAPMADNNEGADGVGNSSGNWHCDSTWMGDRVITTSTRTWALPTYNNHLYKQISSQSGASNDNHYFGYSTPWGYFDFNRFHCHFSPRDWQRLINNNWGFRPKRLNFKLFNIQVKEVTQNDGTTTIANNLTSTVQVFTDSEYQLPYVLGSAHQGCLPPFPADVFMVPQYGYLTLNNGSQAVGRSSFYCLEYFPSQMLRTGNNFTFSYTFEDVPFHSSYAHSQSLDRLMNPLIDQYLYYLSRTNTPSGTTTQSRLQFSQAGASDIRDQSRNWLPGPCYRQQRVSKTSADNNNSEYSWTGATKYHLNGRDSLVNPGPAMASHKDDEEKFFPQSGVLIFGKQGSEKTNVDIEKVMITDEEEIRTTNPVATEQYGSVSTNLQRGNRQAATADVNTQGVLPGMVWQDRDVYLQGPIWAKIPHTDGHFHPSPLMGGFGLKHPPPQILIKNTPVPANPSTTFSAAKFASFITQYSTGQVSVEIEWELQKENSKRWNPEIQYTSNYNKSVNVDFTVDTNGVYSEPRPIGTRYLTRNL

Test [5] has as its system AAV2. Briefly: AAV2 (AV2Luc) transduction of HeLa cells, luciferase activity. Format: cell-based. Conditions: for inhibition of AAV2 transduction: DPI 10 μM. Here is the method: (§1) Recombinant type-2 adeno-associated viruses encoding luciferase (AV2Luc) or factor VIII (AV2FVIII) transgenes were used for infection of different cell types. HeLa and IB3 cells were cultured in DMEM supplemented with 10% fetal bovine serum (FBS) and antibiotics. Nox 1 and Nox2 knockout and wild-type (wt) littermate control mouse dermal fibroblasts were generated from newborn mice as described in Bosu et al. (2001) and below. For all infections, viruses were applied to cells in serum-free DMEM, and an equal volume of 20% FBS/DMEM was added at 2 hours post-infection.
(§2) In studies evaluating viral entry, cells were incubated with 1,000 particles/cell of AV2FVIII at 4° C. for 30 minutes prior to removing virus, washing cells, and shifting cells to 37° C. Cells were then incubated for the indicated times and postnuclear supernatants (PNS) were prepared for analysis of intracellular AAV2. Taqman PCR was used to quantify the abundance of viral genomes in different subcellular fractions following infection using primer sets and methods described in Ding et al. (2006). When proteasome inhibitors were added to induce AAV2 transduction, LLnL (Boston Biochem, Cambridge, Mass.) and/or doxorubicin (Calbiochem, San Diego, Calif.), were present in the medium at concentrations of 40 μM and 5 μM, respectively. Modulation of endosomal ROS was achieved by adding 1 mg/mL of purified bovine Cu/Zn superoxide dismutase (Cu/ZnSOD) (Oxis Research, Portland, Oreg.) and/or catalase (Sigma-Aldrich, St. Louis, Mo.) to the medium which was then applied to cells 20 minutes prior to viral infections unless indicated otherwise. SOD and/or catalase remained in the medium during infection unless otherwise indicated.

In test [6] the test system is AAV2. Briefly: Virion endosomal escape assay (30% iodixanol cushion) in HeLa cells. The format is cell-based. Conditions: 1 hour following infection, catalase loading. How it is done: A protocol using a 30% iodixanol cushion was developed to separate AAV2 virions in the cytoplasm from those inside endosomes. Briefly, HeLa cells were incubated with 1,000 particles/cell of AAV2 at 4° C. for 30 minutes before removing virus, washing cells, and shifting cells to 37° C. Cells were then incubated for the indicated times and PNS were prepared. A total volume of 500 μl PNS was then loaded on the top of 250 μl 30% iodixanol, followed by centrifugation at 100,000×g for 1 hour. Viral genome within the supernatant and pellet were quantified by real-time PCR.

In test [7] the test system is AAV2. Briefly: Viral uptake/accumulation, viral genomes quantified by Taqman PCR, HeLa cells. The format is cell-based. Here is the method:
as §2, with “In studies evaluating the efficiency of viral transduction, AV2Luc virus was used at a multiplicity of infection (MOI) equal to 1,000 particles/cell, and luciferase activity was measured at 24 hours post-infection. In” for “In”
(Quantitative PCR measures a nucleic acid by following its amplification.)

Test [8] concerns AAV2. Briefly: AAV2 (AV2Luc) transduction of IB3 cells, luciferase activity. The format is cell-based. How it is done:
as §1
(§3) In studies evaluating the efficiency of viral transduction, AV2Luc virus was used at a multiplicity of infection (MOI) equal to 1,000 particles/cell, and luciferase activity was measured at 24 hours post-infection. In studies evaluating viral entry, cells were incubated with 1,000 particles/cell of AV2FVIII at 4° C. for 30 minutes prior to removing virus, washing cells, and shifting cells to 37° C. Cells were then incubated for the indicated times and postnuclear supernatants (PNS) were prepared for analysis of intracellular AAV2. Taqman PCR was used to quantify the abundance of viral genomes in different subcellular fractions following infection using primer sets and methods described in Ding et al. (2006). […]

In test [9] the target is T2, NADPH oxidase (Homo sapiens, UniProt P04839).
T2 construct: endogenous in cells; host or cells: iodixanol-fractionated endosomal (vesicular) fractions of HeLa and IB3 cells after AAV2 infection
Briefly: NADPH-dependent superoxide production in endosomal (vesicular) fractions, lucigenin-based assay. The following applies: HeLa cells; 20 minutes following infection; catalase 1 mg/mL. Format: biochemical.
Method: Vesicular fractionation was performed using a previously described protocol (Li et al., 2006b) with minor modifications. Briefly, cells were harvested by scraping and washing twice in 4° C. phosphate-buffered saline (PBS). Cells were then pelleted and resuspended on ice in 1 mL of pre-cooled (4° C.) homogenization buffer (0.25 M sucrose, 10 mM triethanolamine, 1 mM EDTA, 1 mM PMSF, and 100 μg/mL aprotinin) and homogenized using a nitrogen decompression vessel (Parr Instrument, Moline, Ill.). Methods for generating PNS, iodixanol isolation of vesicular fractions, sample collection, quality control, and Nox activity assays were performed as described in Li et al. (2006b).
In brief, vesicular fractions were confirmed by Western blot to contain known endosomal Rab proteins and be devoid of markers for plasma membrane and mitochondria. Nox activities were analyzed by measuring the rate of .O2— generation using a chemiluminescent, lucigenin-based system. […] The reaction was initiated by the addition of 100 μM of NADPH (Sigma-Aldrich, St. Louis, Mo.) and changes in luminescence were measured over the course of 3 min (5 readings/sec). The slope of the luminescence curve (relative light units [RLU] per minute) (r>0.95) was used to calculate the rate of .O2^− formation as an index of NADPH oxidase activity.

The subject of test [10] is AAV2. Briefly: AAV2 (AV2Luc) transduction of Nox1/Nox2 WT and KO primary mouse dermal fibroblasts (PMDF). Format: cell-based. The following applies: catalase 1 mg/ml. How it is done: as §1, §3
Setting [11] is: HeLa cells, antimycin A 10 μM, L-NMMA 5 mM, rotenone 2 nM, 16 hours post-infection.

T1 sequence (P03135 whole entry): as the sequence (P03135 whole entry) above
T1 sequence (P03135 1-598 isoform P03135-2): as the sequence (P03135 1-598 isoform P03135-2 partner) above
T1 sequence (P03135 203-735): as the sequence (P03135 203-735 partner limits assumed) above

Turning to `OO` [H2O2, hydrogen peroxide], the “effect on AAV2 transduction” value in [1] is “increase AAV2 transduction”. In addition, the “number of cysteines that form sulfonic acid in the capsid” value in [2] is reported as below 5%. Further, the “tryptic digestion of AAV2 virions after pre-treatment” value in [3] is “significantly enhanced tryptic digestion”. For the same molecule, in test [4], the “PLA2 activity of H2O2-treated virions” value is “greater than that seen following partial virion heat denaturation” and the “optimal concentration of H2O2 for PLA2 activation” value was 100 nM.
For the molecule antimycin A, the “effect on AAV2 transduction” value in test [5] (setting [11]) is “did not significantly affect”.
As to `c1ccc2c(c1)[I+]c1ccccc1-2` [DPI], the “inhibition of AAV2 transduction” value in [5] (HeLa cells, absence of proteasome inhibitors, 16 hours post-infection) is given as 100 fold; in test [5] (HeLa cells, presence of proteasome inhibitors, 16 hours post-infection), 1000 fold.
As to `CC(=O)O.CNC(=N)NCCC[C@H](N)C(=O)O` [L-NMMA, N^G-monomethyl-L-arginine acetate], the “effect on AAV2 transduction” value in [5] (setting [11]) is reported as “did not significantly affect”.
Still for that read-out and setting: the value for `C=C(C)[C@H]1Cc2c(ccc3c2O[C@@H]2COc4cc(OC)c(OC)cc4[C@@H]2C3=O)O1` [rotenone] was “did not significantly affect”.
For the molecule `CC(=O)N[C@@H](CS)C(=O)O` [NAC, N-acetyl-L-cysteine], the “effect on AAV2 transduction” value in [1] is “inhibit transduction”.
“SOD1: purified bovine Cu/Zn superoxide dismutase (Oxis Research)”: the “effect on AAV2 transduction” value in test [5] (endosomal loading with purified SOD1, absence or presence of proteasome inhibitors) is on record as “failed to alter”.

B1: catalase: purified bovine catalase (Sigma-Aldrich) loaded into endosomes to clear H2O2 (protein, UniProt P00432 2-527, looked up)
Catalase: ADNRDPASDQMKHWKEQRAAQKPDVLTTGGGNPVGDKLNSLTVGPRGPLLVQDVVFTDEMAHFDRERIPERVVHAKGAGAFGYFEVTHDITRYSKAKVFEHIGKRTPIAVRFSTVAGESGSADTVRDPRGFAVKFYTEDGNWDLVGNNTPIFFIRDALLFPSFIHSQKRNPQTHLKDPDMVWDFWSLRPESLHQVSFLFSDRGIPDGHRHMNGYGSHTFKLVNANGEAVYCKFHYKTDQGIKNLSVEDAARLAHEDPDYGLRDLFNAIATGNYPSWTLYIQVMTFSEAEIFPFNPFDLTKVWPHGDYPLIPVGKLVLNRNPVNYFAEVEQLAFDPSNMPPGIEPSPDKMLQGRLFAYPDTHRHRLGPNYLQIPVNCPYRARVANYQRDGPMCMMDNQGGAPNYYPNSFSAPEHQPSALEHRTHFSGDVQRFNSANDDNVTQVRTFYLKVLNEEQRKRLCENIAGHLKDAQLFIQKKAVKNFSDVHPEYGSRIQALLDKYNEEKPKNAVHTYVQHGSHLSAREKANL
For the molecule B1, the “inhibition of viral escape from endosomes” value in test [6] was “about 3 fold”. Besides, in test [7] (1 mg/mL catalase), the “effect on viral uptake” value is given as “not due to impaired viral uptake”. Besides, the “effect on viral accumulation in the endosomal compartment” value in test [7] (20 minutes following infection, catalase 1 mg/mL) is “did not affect”. The “effect on ability of proteasome inhibitors to enhance AAV2 transduction” value in [8] (40 μM LLnL and 5 μM doxorubicin) is recorded as “completely abolished”; in [5] (HeLa cells, 40 μM LLnL and 5 μM doxorubicin), “completely abolished”. For the same molecule, the “effect on AAV2 transduction (luciferase transgene expression)” value in test [8] (1 mg/mL catalase endosomal loading) is given as “significantly inhibited”; in test [5] (HeLa cells, 1 mg/mL catalase endosomal loading), “significantly inhibited”. For the same molecule, in [9], the “effect on Nox activity in the endosomal compartment” value is recorded as “did not affect”. The “effect on AAV2 transduction” value in test [10] (Nox1+/+ and Nox1-/- PMDFs, baseline and proteasome inhibitor induced) is reported as “inhibited transduction”; in test [10] (Nox2-/- PMDFs), “did not significantly alter”. Besides, the “ability of catalase loading to inhibit viral transduction” value in test [5] (catalase added by 30 minutes post-infection) is “significantly declined”; in test [5] (catalase added by 60 minutes post-infection), “completely absent”. Further, the “decrease of rAAV2 transduction by catalase loading” value in test [5] (endosomal catalase loading, cell type not stated in b12) was “about 80 fold”.
